These results are taken from paper doi:10.1101/2020.06.17.153486 (bioRxiv, 2020).

The target of this test is SARS-CoV-2 spike trimer (S trimer), soluble ectodomain (SARS-CoV-2, Wuhan-Hu-1 type, stabilised). The test can be described thus: cryo-EM structure.

B1: 2-4 Fab (Fab, V domains shown)
VH: QVQLVQSGAEVKKPGASVKVSCKASGYTFTGYYMHWVRQAPGQGLEWMGWINPNSGGTNYTQMFQGRVTMTRDTSISTAYMEVSRLRSDDTAVYYCARDRSWAVVYYYMDVWGKGTTVTVSS
VL: QSALTQPPSASGSPGQSVTISCTGTSSDVGGYNYVSWYQQHPGKAPKLMIYEVSKRPSGVPDRFSGSKSGNTASLTVSGLQAEDEADYYCSSYAGSNNLVFGGGTKLTVL
One may read the stoichiometry N as a count of units in the complex or per binding partner. B1: the “stoichiometry N” value amounted to 3 Fab per trimer.
